# Laboratory results: US20140050720A1 (Scripps Research, published 2014)
# Target: GLP-1 receptor on HEK293 cells carrying a cAMP responsive luciferase reporter gene (UniProt P43220 24-463, limits assumed)
# Assay: cell-based or functional assay
Binder,RLU (cAMP responsive luciferase reporter) at 1.26953 nM,RLU (cAMP responsive luciferase reporter) at 2.53906 nM,RLU (cAMP responsive luciferase reporter) at 5.07813 nM,RLU (cAMP responsive luciferase reporter) at 10.15625 nM,RLU (cAMP responsive luciferase reporter) at 20.3125 nM,RLU (cAMP responsive luciferase reporter) at 40.625 nM,RLU (cAMP responsive luciferase reporter) at 81.25 nM,RLU (cAMP responsive luciferase reporter) at 162.5 nM,RLU (cAMP responsive luciferase reporter) at 325 nM,RLU (cAMP responsive luciferase reporter) at 650 nM
"BLV1H12-GLP-1 fusion antibody (antibody, human IgG1) heavy: not shown light: QAVLNQPSSVSGSLGQRVSITCSGSSSNVGNGYVSWYQLIPGSAPRTLIYGDTSRASGVPDRFSGSRSGNTATLTISSLQAEDEADYFCASAEDSSSNAVFGSGTTLTVLGQPKSPPSVTLFPPSTEELNGNKATLVCLISDFYPGSVTVVWKADGSTITRNVETTRASKQSNSKYAASSYLSLTSSDWKSKGSYSCEVTHEGSTVTKTVKPSECS",18600 RLU,24500 RLU,43200 RLU,66600 RLU,105000 RLU,144000 RLU,151000 RLU,167000 RLU,171000 RLU,160000 RLU
"BLV1H12-GLP-1 clip fusion antibody (antibody, cleaved by Factor Xa at the IEGR site in front of GLP-1, releasing the N-terminus of GLP-1) heavy: not shown light: QAVLNQPSSVSGSLGQRVSITCSGSSSNVGNGYVSWYQLIPGSAPRTLIYGDTSRASGVPDRFSGSRSGNTATLTISSLQAEDEADYFCASAEDSSSNAVFGSGTTLTVLGQPKSPPSVTLFPPSTEELNGNKATLVCLISDFYPGSVTVVWKADGSTITRNVETTRASKQSNSKYAASSYLSLTSSDWKSKGSYSCEVTHEGSTVTKTVKPSECS",4740 RLU,5800 RLU,4400 RLU,5200 RLU,7780 RLU,13600 RLU,33800 RLU,65800 RLU,101000 RLU,141000 RLU
"BLV1H12-Ex-4 fusion antibody (antibody, human IgG1) heavy: not shown light: QAVLNQPSSVSGSLGQRVSITCSGSSSNVGNGYVSWYQLIPGSAPRTLIYGDTSRASGVPDRFSGSRSGNTATLTISSLQAEDEADYFCASAEDSSSNAVFGSGTTLTVLGQPKSPPSVTLFPPSTEELNGNKATLVCLISDFYPGSVTVVWKADGSTITRNVETTRASKQSNSKYAASSYLSLTSSDWKSKGSYSCEVTHEGSTVTKTVKPSECS",6120 RLU,6360 RLU,8500 RLU,10400 RLU,19300 RLU,28000 RLU,54800 RLU,90700 RLU,118000 RLU,135000 RLU

# Same assay, conditions: not given
row,Binder,RLU (cAMP responsive luciferase reporter) at 1300 nM
1,"BLV1H12-GLP-1 fusion antibody (antibody, human IgG1) heavy: not shown light: QAVLNQPSSVSGSLGQRVSITCSGSSSNVGNGYVSWYQLIPGSAPRTLIYGDTSRASGVPDRFSGSRSGNTATLTISSLQAEDEADYFCASAEDSSSNAVFGSGTTLTVLGQPKSPPSVTLFPPSTEELNGNKATLVCLISDFYPGSVTVVWKADGSTITRNVETTRASKQSNSKYAASSYLSLTSSDWKSKGSYSCEVTHEGSTVTKTVKPSECS",185000 RLU
2,"BLV1H12-GLP-1 clip fusion antibody (antibody, cleaved by Factor Xa at the IEGR site in front of GLP-1, releasing the N-terminus of GLP-1) heavy: not shown light: QAVLNQPSSVSGSLGQRVSITCSGSSSNVGNGYVSWYQLIPGSAPRTLIYGDTSRASGVPDRFSGSRSGNTATLTISSLQAEDEADYFCASAEDSSSNAVFGSGTTLTVLGQPKSPPSVTLFPPSTEELNGNKATLVCLISDFYPGSVTVVWKADGSTITRNVETTRASKQSNSKYAASSYLSLTSSDWKSKGSYSCEVTHEGSTVTKTVKPSECS",169000 RLU
3,"BLV1H12-Ex-4 fusion antibody (antibody, human IgG1) heavy: not shown light: QAVLNQPSSVSGSLGQRVSITCSGSSSNVGNGYVSWYQLIPGSAPRTLIYGDTSRASGVPDRFSGSRSGNTATLTISSLQAEDEADYFCASAEDSSSNAVFGSGTTLTVLGQPKSPPSVTLFPPSTEELNGNKATLVCLISDFYPGSVTVVWKADGSTITRNVETTRASKQSNSKYAASSYLSLTSSDWKSKGSYSCEVTHEGSTVTKTVKPSECS",160000 RLU
